Results: patent publication US6734169B2, “Apolipoprotein A-I agonists and their use to treat dyslipidemic disorders” (priority 1997, dated 2004)
Square brackets hold non-standard residues; d marks the D form. Primed or numbered codes have the meaning given here. Ends that are not written are not given here. Nal″ = Z is Nal (naphthylalanine; Nal = Z in the sequences is Nal; Aib = CC(C)(N)C(=O)O

Key:
[1] = Circular dichroism: degree of helicity; format: physicochemical; settings: for He (%) TFE / He (%) free / He (%) mics / He (%) SUVs: percent helicity, 37° C.; for He (%) TFE: 5 μM peptide, 90% vol TFE; for He (%) free: unbound peptide, 5 μM in 5 mM phosphate buffer, pH 7.4; for He (%) mics: peptide-micelle complexes (1-myristoyl-2-hydroxy-sn-glycero-3-phosphatidyl choline, Ri=100); for He (%) SUVs: peptide-SUV complexes (20:1 EPC:Chol., Ri=50)
Experimental: Far UV circular dichroism spectra were recorded between 190 and 260 nm (in 0.5 nm or 0.2 nm increments) with a AVIV62DS spectrometer (AVIV Associates, Lakewood, N.J., USA) equipped with a thermoelectric cell holder and sample changer. The instrument was calibrated with (+)-10-[…]. Between one and three scans were collected for each sample, using 10 cm, 5 cm, 1 cm and 0.1 cm path length quartz Suprasil cells, respectively, for peptide concentrations of 10^−7 M to 10^−4 M. The bandwidth was fixed at 1.5 nm and the scan speed to 1s per wavelength step. The reported data are the mean of at least 2 or 3 independent measurements.
After background subtraction, spectra were converted to molar ellipticity (θ) per residue in […]. The peptide concentration was determined by amino acid analysis and also by absorption spectrometry on a Perkin Elmer Lambda 17 UV/Visible spectrophotometer when the peptide contained a chromophore (tryptophan, dansyl, naphthylalanine).
CD spectra were obtained with free, unbound peptide (5 μM in 5 mM phosphate buffer, pH 7.4); with peptide-SUV complexes (20:1 EPC:Chol., Ri=50); with peptide-micelle complexes (1-myristoyl-2-hydroxy-sn-glycero-3-phosphatidyl choline, Ri=100); and with free, unbound peptide in the presence of 2,2,2-trifluoroethanol (TFE) (5 μM peptide, 90% vol TFE).
The SUVs were obtained by dispersing the lipids (10 mM, 20:1 EPC:Chol., Avanti Polar Lipids, AL) in phosphate buffer (5 mM, pH 7.4) with bubbling N2 for 5 min., followed by sonication (1.5 hr.) in a bath sonicator. The homogeneity of the preparation was checked by FPLC.
The micelles were obtained by dispersing the lipid (6 mM 1-myristoyl-2-hydroxy-sn-glycero-3-phosphatidyl choline, Avanti Polar Lipids, AL) in phosphate buffer (5 mM, pH 7.4) with bubbling N2 for 5 min., followed by vortexing.
To obtain the peptide-SUV complexes, SUVs were added to the peptide (5 μM in 5 mM phosphate buffer, pH 7.4) at a phospholipid-peptide molar ratio (Ri) of […].
To obtain the peptide-micelle complexes, micelles were added to the peptide (5 μM in 5 mM phosphate buffer, pH 7.4) at a Ri of 100.
All spectra were recorded at 37° C. The stability of peptide 210 (SEQ ID NO:210) as a function of temperature (both free in buffer and in micelles) was determined by recording spectra at a series of different temperatures.
The degree of helicity of the peptides in the various conditions was determined from the mean residue ellipticity at 222 nm (Chen et al., 1974, Biochemistry 13:3350-3359) or by comparing the CD spectra obtained to reference spectra available on databases (16 helical reference spectra from Provencher & Glockner, 1981, Biochemistry 20:33-37; denatured protein reference spectra from Venyaminov et al., 1993, Anal. Biochem. 214:17-24) using the CONTIN curve-fitting algorithm version 2DP, CD-1 pack (August 1982) (Provencher, 1982, Comput. Phys. Commun. 27:213-227, 229-242). Acceptable fit was determined using the statistical analysis methodology provided by the CONTIN algorithm. The error of all methods was ±5% helicity.

[2] = Lipid binding by fluorescence spectroscopy; settings: for I/Io: peptide 2 μM, 37° C.
Experimental: The lipid binding properties of the peptides synthesized in Section 6, supra, were tested by fluorescence measurements with labeled peptides, in the present case tryptophan (Trp or W) or naphthylalanine (Nal). The fluorescence spectra were recorded on a Fluoromax from Spex (Jobin-Yvon) equipped with a Xenon lamp of 150 W, two monochromators (excitation and emission), a photomultiplier R-928 for detection sensitive in the red up to 850 nm and a thermoelectric magnetic stirred cell holder. Quartz Suprasil cuvettes were used for measurements in the micromolar concentration range. A device of variable slits (from 0.4 to 5 nm) allows modulation of the incident and emitted intensities according to the concentration of peptide used. The reported values are in general the average of between 2 to 4 spectra. The peptide concentration is determined by absorption spectrometry on a Philips PU 8800 using the absorption band of the Trp (∈280 nm=5,550 M^−1 cm^−1 in Tris buffer) or the Nal (∈224 nm=92,770 M^−1 cm^−1 in methanol).
Fluorescence spectra of the peptides were recorded between 290 nm and 450 nm in Tris-HCl buffer (20 mM, pH=7.5), in the presence and absence of lipidic vesicles. The small unilamellar vesicles were formed after rehydration in buffer of the lyophilized phospholipids, dispersion and tip sonification under a N2 stream. The lipids used were either Egg PC/Chol. (20:1) or POPC/Chol. (20:1). The spectra were recorded at a peptide concentration of 2 μM and at a temperature of 37° C. The fluorescence reference standard in the case of Trp was N-acetyltryptophanylamide (NATA).
Lipid binding studies were done through progressive lipidic vesicle addition to the peptide in solution at 2 μM (slits:5 nm in excitation and 1.5 nm in emission). Dilution effects were taken into account for the fluorescence intensity determination. The lipid concentrations were varied from 10 to 600 μM and the molar ratio of lipid to peptide (Ri) was varied from 5 to 300. The wavelength of excitation was set at 280 nm for both Trp and Nal.
The data were directly recorded and treated by an IBM-PC linked to the spectrofluorimeter through the DM3000F software from Spex. The spectra were corrected by substraction of the solvent contribution and by application of a coefficient given by the constructor taking into account the variation of the photomultiplier response versus the wavelength.
The fluorescence spectra of the peptides were characterized by the wavelength at their maximum of fluorescence emission and by their quantum yield compared to NATA in the case of peptides labeled with a tryptophan. The process of binding to lipids was analyzed by calculating the shift of the wavelength at the maximum of fluorescence emission, (λmax), and the variation of the relative fluorescence intensity of emission versus the lipid concentration. The relative fluorescence intensity is defined as the following ratio: (I-I0)λmax/I0λmax. I and I0 are both measured at the (λmax) corresponding to the initial free state of the peptide i.e., without lipids. I is the intensity at a defined lipid to peptide ratio and I0 is the same parameter measured in absence of lipids. The absence of these variations is relevant to the absence of interactions of the peptides with the lipids.

[3] = EPC/Chol (20:1) small unilamellar vesicles

| Substance | He (%) TFE [1] | He (%) free [1] | He (%) mics [1] | He (%) SUVs [1] | also measured |
| --- | --- | --- | --- | --- | --- |
| .klkgklaellenllerfldlvp [compound 107] | 77% |  |  |  |  |
| EWLEAFYKKVLEKLKELF* (Ac-EWLEAFYKKVLEKLKELF-NH2) [compound 239, reference compound] |  | 44% | 49% |  |  |
| GVLELFENLLERLLDALQKKLK [compound 145] | 58% | 55% | 51% |  |  |
| PVLDLFRELLEELKQKLK [peptide 210] |  |  |  |  | stability of the α-helical structure as a function of temperature ([1]; temperature range of 5°-45° C., data not shown): completely stable |
| PVLDLFRELLNELLEAZKQKLK (PVLDLFRELLNELLEA[Nal″]KQKLK) [peptide 10] | 71% | 60% | 87% | 70% |  |
| PVLDLFRELLNELZEALKQKLK (PVLDLFRELLNEL[Nal]EALKQKLK) [compound 27] | 81% | 72% | 92% | 82% |  |
| PVLDLFRELWEELKQKLK* (Ac-PVLDLFRELWEELKQKLK-NH2) [peptide 199] |  |  |  |  | lipid binding (burying of the tryptophan, fluorescence intensity exaltation) [2, 3]: binds very effectively; lipid to peptide molar ratio at which the burying of the tryptophan residue is maximal [2, 3]: about 100; I/Io ([2]; Lipid:Peptide Molar Ratio (Ri) 0): 0; λmax (nm) ([2]; Ri 5): 344 nm; I/Io ([2]; Ri 5): 8; λmax (nm) ([2]; Ri 10): 339 nm; I/Io ([2]; Ri 10): 8; λmax (nm) ([2]; Ri 30): 328 nm; I/Io ([2]; Ri 30): 18; I/Io ([2]; Ri 60): 22; λmax (nm) ([2]; Ri 100): 326 nm; I/Io ([2]; Ri 100): 27; λmax (nm) ([2]; Ri 200): 325 nm; I/Io ([2]; Ri 200): 41; λmax (nm) ([2]; maximum of tryptophan fluorescence emission, Ri 0 (in buffer, no lipid), 2 μM): 348 nm |
| PVLDLFRWLLNEXLEALKQKLK (PVLDLFRWLLNE[Aib]LEALKQKLK) [compound 108] |  |  |  | 54% |  |
| PVLDZFRELLNELLEALKQKLK (PVLD[Nal]FRELLNELLEALKQKLK) [compound 34] | 62% | 58% | 67% | 68% |  |
| pVLELFENLLERLLDALQKKLK ([dP]VLELFENLLERLLDALQKKLK) [compound 144] | 95% | 89% | 88% |  |  |
| pllellkellqellealkqklk ([dP][dL][dL][dE][dL][dL][dK][dE][dL][dL][dQ][dE][dL][dL][dE][dA][dL][dK][dQ][dK][dL][dK]) [compound 87] | 100% | 100% |  |  |  |
| pvldefreklneXlealkqklk ([dP][dV][dL][dD][dE][dF][dR][dE][dK][dL][dN][dE][Aib][dL][dE][dA][dL][dK][dQ][dK][dL][dK]) [compound 44] |  | 20% | 86% |  |  |
| pvldlfrellneXlealkqklk ([dP][dV][dL][dD][dL][dF][dR][dE][dL][dL][dN][dE][Aib][dL][dE][dA][dL][dK][dQ][dK][dL][dK]) [compound 96] | 81% | 52% | 85% | 63% |  |
| pvldlfrellnellealkqklk [compound 100] | 98% | 83% | 92% |  |  |
